This is an account of results in article PMC10244696, “Thioredoxin TRXo1 is involved in ABA perception via PYR1 redox regulation” (Redox Biology, 2023).

Usually stoichiometry N stands for a count of units in the complex or per binding partner.

The target in data set [1] is T1, PYR1 in Arabidopsis leaf extracts (Arabidopsis thaliana (endogenous in Col-0 leaves)), O49686.
T1 chain: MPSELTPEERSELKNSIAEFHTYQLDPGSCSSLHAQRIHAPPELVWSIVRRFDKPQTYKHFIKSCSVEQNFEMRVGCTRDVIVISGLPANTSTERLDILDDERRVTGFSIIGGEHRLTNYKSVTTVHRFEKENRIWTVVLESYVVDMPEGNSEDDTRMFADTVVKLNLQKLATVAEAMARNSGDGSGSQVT
Briefly: non-reducing SDS-PAGE and Western blot of oligomeric forms; leaf extracts of Arabidopsis, anti-PYR1; wild type extract without blocking or alkylating agent, also with 50 mM DTT or 4 mM H2O2 added; WT, KO and OEX Attrxo1 plants with or without 10 μM ABA for 48 h (extracts with 5 mM NEM). To be noted: remark: other sources report otherwise. (In general: A western blot detects proteins with antibodies after separation by electrophoresis.)

Data set [2] deals with T2, recombinant HisAtPYR1 (Arabidopsis thaliana), O49686.
T2 chain: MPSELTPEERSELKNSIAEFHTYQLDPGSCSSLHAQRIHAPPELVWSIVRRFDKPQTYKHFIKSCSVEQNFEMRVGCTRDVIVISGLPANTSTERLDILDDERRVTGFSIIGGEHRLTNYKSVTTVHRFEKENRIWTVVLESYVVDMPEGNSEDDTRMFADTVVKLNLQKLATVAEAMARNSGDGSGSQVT
Nature of the data set: SDS-PAGE and Western blot of oligomeric forms; recombinant HisAtPYR1 or its Cys mutants in 20 mM Tris-HCl pH 7.9, untreated, with 4 mM H2O2, or 2 mM DTT and then 4 mM H2O2 (30 min, room temperature); 2.5 μg on SDS-PAGE, anti-AtPYR1. To be noted: remark: other sources report otherwise.

Data set [3] concerns the molecule itself. The data set is described as above.

B1: PYR1 in Arabidopsis leaf extracts, O49686 1-191 (receptor)
chain: MPSELTPEERSELKNSIAEFHTYQLDPGSCSSLHAQRIHAPPELVWSIVRRFDKPQTYKHFIKSCSVEQNFEMRVGCTRDVIVISGLPANTSTERLDILDDERRVTGFSIIGGEHRLTNYKSVTTVHRFEKENRIWTVVLESYVVDMPEGNSEDDTRMFADTVVKLNLQKLATVAEAMARNSGDGSGSQVT
In data set [1], B1 yielded a stoichiometry N of 2.

B2: recombinant HisAtPYR1, O49686 1-191 (receptor)
chain: MPSELTPEERSELKNSIAEFHTYQLDPGSCSSLHAQRIHAPPELVWSIVRRFDKPQTYKHFIKSCSVEQNFEMRVGCTRDVIVISGLPANTSTERLDILDDERRVTGFSIIGGEHRLTNYKSVTTVHRFEKENRIWTVVLESYVVDMPEGNSEDDTRMFADTVVKLNLQKLATVAEAMARNSGDGSGSQVT
Turning to B2, the stoichiometry N in data set [2] turned out to be 2.

B3: HisAtPYR1C30S (receptor, Arabidopsis thaliana, UniProt O49686 1-191, looked up)
chain: MPSELTPEERSELKNSIAEFHTYQLDPGSSSSLHAQRIHAPPELVWSIVRRFDKPQTYKHFIKSCSVEQNFEMRVGCTRDVIVISGLPANTSTERLDILDDERRVTGFSIIGGEHRLTNYKSVTTVHRFEKENRIWTVVLESYVVDMPEGNSEDDTRMFADTVVKLNLQKLATVAEAMARNSGDGSGSQVT
notes: PYR1 of Arabidopsis thaliana (At4g17870) with Cys30 replaced by Ser; cloned in NcoI/EcoRI of pETM11; source: E. coli BL21, purified (Ni-NTA agarose)
Regarding B3, the “amount of dimers, fold of PYR1” value in data set [3] came to 0.3 fold.

B4: HisAtPYR1C65S (receptor, Arabidopsis thaliana, UniProt O49686 1-191, looked up)
chain: MPSELTPEERSELKNSIAEFHTYQLDPGSCSSLHAQRIHAPPELVWSIVRRFDKPQTYKHFIKSSSVEQNFEMRVGCTRDVIVISGLPANTSTERLDILDDERRVTGFSIIGGEHRLTNYKSVTTVHRFEKENRIWTVVLESYVVDMPEGNSEDDTRMFADTVVKLNLQKLATVAEAMARNSGDGSGSQVT
notes: PYR1 of Arabidopsis thaliana (At4g17870) with Cys65 replaced by Ser; cloned in NcoI/EcoRI of pETM11; source: E. coli BL21, purified (Ni-NTA agarose)
B4: in data set [3], the “amount of dimers, fold of PYR1” value came to 2.3 fold.

B5: HisAtPYR1C77S (receptor, Arabidopsis thaliana, UniProt O49686 1-191, looked up)
chain: MPSELTPEERSELKNSIAEFHTYQLDPGSCSSLHAQRIHAPPELVWSIVRRFDKPQTYKHFIKSCSVEQNFEMRVGSTRDVIVISGLPANTSTERLDILDDERRVTGFSIIGGEHRLTNYKSVTTVHRFEKENRIWTVVLESYVVDMPEGNSEDDTRMFADTVVKLNLQKLATVAEAMARNSGDGSGSQVT
notes: PYR1 of Arabidopsis thaliana (At4g17870) with Cys77 replaced by Ser; cloned in NcoI/EcoRI of pETM11; source: E. coli BL21, purified (Ni-NTA agarose)
Consider B5, for which, in data set [3], the “amount of dimers, fold of PYR1” value turned out to be 0.6 fold.
